In patent US20150320880A1, “ANTIBODY DRUG CONJUGATES” (NOVARTIS AG, priority 2013, published 2015):

B1: anti-cKIT antibody 9P3 (antibody, V domains shown)
VH: EVRLVESEGGLVQPRSSMKLSCTASGFTFSDYYMAWVRQVPEKGLEWVANINYDGSSTYYLDSLKSRFIISRDNAKNILYLQMSSLKSEDTATYYCARGDYYGTTYWYFDVWGTGTTVTVSS
VL: DIQMTQTTSSLSASLGDRVTISCRASQDISNYLNWYQQKPDGTVKLLIYYTSRLQSGVPSRFSGSGSGTDYSLTISNLEQEDIATYFCQQGKKLWSFGGGTKLEIKR
notes: Hybridoma-derived mouse variable domains; also called murine 9P3
B2: NEG026 (antibody, human IgG1, kappa, V domains shown)
VH: EVQLVESGGGLVQPGGSLRLSCAASGFTFSDYYMAWVRQAPGKGLEWVANINQNTGSTYYVDSVQGRFTISRDNAKNSLYLQMNSLRAEDTAVYYCARGDYYGTTYWYFDVWGQGTTVTVSS
VL: EIVMTQSPATLSLSPGERATLSCRASQDISNYLNWYQQKPGQAPRLLIYYTSRLQSGIPARFSGSGSGTDYTLTISSLEPEDFAVYYCQQGKKLWSFGGGTKVEIKR
notes: Humanized, optimized variant of 9P3; human IgG1 kappa

Assays:
Uke-1 cells = assay: ADCC activity in vitro (Calcein release, NK3.3 effector cells); assay type: cell-based; settings: effector to target ratio 20 to 1
Description: In brief, Uke-1 cells were stained with Calcein acetoxy-methyl ester (Calcein-AM; Sigma-Aldrich catalog #17783-5MG, St. Louis, Mo.), washed twice, pipetted into a 96-well microtiterplate (96 well, U-bottomed, clear plastic; Corning Costar, catalog #650 160, Tewksbury, Mass.) at a concentration of 5000 cells per well and pre-incubated for 10 min with a serial dilution of the above mentioned antibodies and proteins (from 50,000 to 0.003 μg per ml) before adding the effector NK3.3 cells for 1 hour in an effector to target ratio of 20 to 1. In order to calculate the antibody specific lysis of the target cells, a parallel incubation of target cells only without antibody or effector cells served as a baseline and negative control, whereas the positive control or maximal lysis or hundred percent specific lysis was determined by lysis of target cells only with a 1% Triton-X 100 solution. […] Following a co-incubation of target and effector cells, the microtiterplate was centrifuged and an aliquot of the supernatant fluid was transferred to another microtiterplate (96 well, flat-bottomed, black with clear bottom; (Corning Costar, catalog #3904, Tewksbury, Mass.) and the concentration of free Calcein in solution was determined with a fluorescence counter (Victor 3 ® multilabel counter, Perkin Elmer, Waltham, Mass.).

SCF binding to cKIT = SCF binding to cKIT (Homo sapiens, UniProt P10721); assay: Competition assays (ELISA and FACS) of SCF binding to cKIT
Sequence of SCF binding to cKIT (P10721 26-524 limits assumed): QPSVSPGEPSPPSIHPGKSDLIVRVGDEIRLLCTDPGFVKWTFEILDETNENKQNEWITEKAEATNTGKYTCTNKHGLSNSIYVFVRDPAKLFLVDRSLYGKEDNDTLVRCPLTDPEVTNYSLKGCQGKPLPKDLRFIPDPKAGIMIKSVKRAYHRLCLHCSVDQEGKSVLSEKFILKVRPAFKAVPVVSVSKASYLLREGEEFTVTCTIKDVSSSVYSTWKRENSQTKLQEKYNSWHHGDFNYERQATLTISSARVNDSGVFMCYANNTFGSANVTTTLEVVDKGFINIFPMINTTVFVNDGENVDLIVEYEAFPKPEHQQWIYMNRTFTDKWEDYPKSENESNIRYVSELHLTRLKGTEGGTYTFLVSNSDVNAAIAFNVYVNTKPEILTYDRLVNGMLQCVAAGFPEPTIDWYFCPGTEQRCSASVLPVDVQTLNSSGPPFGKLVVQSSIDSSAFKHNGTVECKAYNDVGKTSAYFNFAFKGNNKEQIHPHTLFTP

[1] = molecular target: T1, Human cKIT D1-5 (human cKIT tr. variant 2, residues 26-520, C-terminal His tag) (human, UniProt P10721 26-524); assay: SPR (Biacore 2000), antibody captured on anti-human Fc, cKIT ECD as analyte, 25 C, 1:1 fit
T1 construct: also called human cKIT ECD; Human c-Kit ECD
T1 sequence (P10721 other isoform, or with tags, fused parts or gaps mutant limits assumed): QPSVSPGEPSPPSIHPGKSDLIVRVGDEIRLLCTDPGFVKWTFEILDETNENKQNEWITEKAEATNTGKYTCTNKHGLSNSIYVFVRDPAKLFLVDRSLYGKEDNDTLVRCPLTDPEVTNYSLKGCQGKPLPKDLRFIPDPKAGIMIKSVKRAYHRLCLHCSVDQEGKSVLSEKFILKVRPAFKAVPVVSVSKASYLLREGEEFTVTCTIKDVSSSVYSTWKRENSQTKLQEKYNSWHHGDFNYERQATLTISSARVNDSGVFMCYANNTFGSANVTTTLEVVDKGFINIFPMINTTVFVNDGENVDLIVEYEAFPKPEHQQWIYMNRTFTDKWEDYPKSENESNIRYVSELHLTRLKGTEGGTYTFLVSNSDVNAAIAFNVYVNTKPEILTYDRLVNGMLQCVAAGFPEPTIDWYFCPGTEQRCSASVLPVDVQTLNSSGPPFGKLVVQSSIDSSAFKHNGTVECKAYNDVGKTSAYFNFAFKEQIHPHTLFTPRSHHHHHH

human cKIT ECD = molecular target: T2, human cKIT ECD (Homo sapiens, UniProt P10721); assay: SPR (Biacore 2000) affinity measurement; assay type: binding; settings: 25° C.
T2 construct: Human cKIT tr. variant 2, residues 26-520-TAG; made in house; host or cells: HEK293 derived cell lines (293FS), transient transfection
Description: (§1) Affinity of the antibodies to cKIT species orthologues and also to cKIT was determined using SPR technology using a Biacore® 2000 instrument (GE Healthcare, Pittsburgh, Pa.) and with CM5 sensor chips.
(§2) Briefly, HBS-P (0.01 M HEPES, pH 7.4, 0.15 M NaCl, 0.005% Surfactant P20) supplemented with 2% Odyssey® blocking buffer (Li-Cor Biosciences, Lincoln, Nebr.) was used as the running buffer for all the experiments. The immobilization level and analyte interactions were measured by response unit (RU). Pilot experiments were performed to test and confirm the feasibility of the immobilization of the anti-human Fc antibody (Catalog number BR100839, GE Healthcare, Pittsburgh, Pa.) and the capture of the test antibodies.
(§3) For kinetic measurements, the experiments were performed in which the antibodies were captured to the sensor chip surface via the immobilized anti-human Fc antibody and the ability of the cKIT proteins to bind in free solution was determined Briefly, 25 μg/ml of anti-human Fc antibody at pH 5 was immobilized on a CM5 sensor chip through amine coupling at flow rate of 5 μl/minute on all two flow cells to reach 10,500 RUs. 0.1-1 μg/ml of test antibodies were then injected at 10 μl/min for 1 minute. Captured levels of the antibodies were generally kept below 200 RUs. Subsequently, 3.125-50 nM of cKIT receptor extracellular domains (ECD) were diluted in a 2-fold series and injected at a flow rate of 40 μl/min for 3 min over both reference and test flow cells. Table of tested ECDs is listed below. Dissociation of the binding was followed for 10 min. After each injection cycle, the chip surface was regenerated with 3 M MgCl2 at 10 μl/min for 30 s.

mouse cKIT ECD = assay: SPR (Biacore 2000) affinity measurement; assay type: binding; settings: 25° C.
Description: as §1, §2, §3

[2] = system: GIST T1 subcutaneous tumor xenograft; settings: Example 28, single i.v. dose: 9P3 10 mg/kg, IgG1-MCC-DM1 5 mg/kg, IgG1-SPDB-DM4 10 mg/kg, 9P3-MCC-DM1 5 and 10 mg/kg, 9P3-SPDB-DM4 2.5 and 5 mg/kg
Description: The anti-tumor activity of anti-cKIT ADCs was evaluated in several tumor xenograft models.

[3] = molecular target: T3, Mouse cKIT ECD, C-terminal 6x His (Sino Biological Inc, catalog number 50530-M08H) (mouse, UniProt P05532 25-527); assay: SPR (Biacore 2000), antibody captured on anti-human Fc
T3 construct: extracellular domain; Bought protein
T3 sequence (looked up): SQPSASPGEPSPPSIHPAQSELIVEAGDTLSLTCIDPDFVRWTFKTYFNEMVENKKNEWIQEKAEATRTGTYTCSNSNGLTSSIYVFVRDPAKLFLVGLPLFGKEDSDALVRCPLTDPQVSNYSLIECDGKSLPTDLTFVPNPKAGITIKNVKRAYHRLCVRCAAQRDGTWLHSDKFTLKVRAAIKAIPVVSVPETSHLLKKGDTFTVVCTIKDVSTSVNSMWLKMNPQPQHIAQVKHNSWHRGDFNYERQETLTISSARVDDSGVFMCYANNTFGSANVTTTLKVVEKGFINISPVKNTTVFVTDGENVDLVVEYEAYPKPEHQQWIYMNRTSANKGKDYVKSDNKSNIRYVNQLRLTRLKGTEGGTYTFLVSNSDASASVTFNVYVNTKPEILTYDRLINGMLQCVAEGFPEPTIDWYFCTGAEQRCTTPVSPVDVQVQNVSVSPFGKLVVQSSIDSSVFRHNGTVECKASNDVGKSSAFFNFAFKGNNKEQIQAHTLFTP

[4] = molecular target: T4, Rat cKIT D1-5 (residues 25-526, C-terminal mFc) (rat); assay: as above
T4 construct: The entry includes the linker and mouse Fc tag; also called rat cKIT-mFc
T4 chain: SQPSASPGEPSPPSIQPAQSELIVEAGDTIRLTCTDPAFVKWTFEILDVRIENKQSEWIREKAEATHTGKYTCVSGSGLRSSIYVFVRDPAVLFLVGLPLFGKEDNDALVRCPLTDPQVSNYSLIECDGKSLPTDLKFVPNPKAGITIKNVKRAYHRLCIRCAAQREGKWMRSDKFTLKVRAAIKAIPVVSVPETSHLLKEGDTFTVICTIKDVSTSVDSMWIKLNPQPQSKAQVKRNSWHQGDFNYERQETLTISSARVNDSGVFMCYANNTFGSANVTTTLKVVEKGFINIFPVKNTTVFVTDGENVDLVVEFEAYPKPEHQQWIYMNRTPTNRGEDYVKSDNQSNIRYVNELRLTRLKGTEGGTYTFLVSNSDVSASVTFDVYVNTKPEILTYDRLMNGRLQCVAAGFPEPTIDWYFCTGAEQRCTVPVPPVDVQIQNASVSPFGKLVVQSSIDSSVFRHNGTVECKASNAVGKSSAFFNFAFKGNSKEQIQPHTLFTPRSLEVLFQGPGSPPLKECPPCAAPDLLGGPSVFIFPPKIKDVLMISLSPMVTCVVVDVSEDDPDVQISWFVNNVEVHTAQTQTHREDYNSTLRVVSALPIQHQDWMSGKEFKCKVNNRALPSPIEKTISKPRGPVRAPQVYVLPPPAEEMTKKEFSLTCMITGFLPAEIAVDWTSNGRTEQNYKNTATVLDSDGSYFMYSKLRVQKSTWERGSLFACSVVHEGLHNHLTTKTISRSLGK

[5] = molecular target: T5, Human cKIT D1-3 (human cKIT tr. variant 1, residues 26-311, tagged) (human, UniProt P10721 26-311); assay: ELISA on coated cKIT subdomain constructs (Example 6)
T5 construct: also called cKIT subdomains 1-3
T5 sequence (P10721 other isoform, or with tags, fused parts or gaps mutant limits assumed): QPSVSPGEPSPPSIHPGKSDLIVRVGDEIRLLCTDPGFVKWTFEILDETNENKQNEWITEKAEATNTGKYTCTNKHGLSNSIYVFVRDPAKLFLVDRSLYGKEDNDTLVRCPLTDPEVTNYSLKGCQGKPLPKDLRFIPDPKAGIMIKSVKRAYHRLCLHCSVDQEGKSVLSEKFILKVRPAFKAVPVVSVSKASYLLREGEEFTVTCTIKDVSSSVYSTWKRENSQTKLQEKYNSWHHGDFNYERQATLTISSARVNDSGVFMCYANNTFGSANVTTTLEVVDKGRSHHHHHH

Molecule	ADCC killing of target cells (Uke-1 cells)	blocking of SCF binding to cKIT (SCF binding to cKIT)	Kd [1]	Affinity human cKIT (nM) (human cKIT ECD)	Affinity mouse cKIT (nM) (mouse cKIT ECD)	anti-tumor activity (tumor volume) [2]	binding result [3]	binding result [4]	binding result [5]
MabCampath [reference compound]	mediated ADCC killing of the target cells	–	–	–	–	–	–	–	–
B1	–	partial blocking of SCF binding to cKIT	20 nM	nanomolar level	Not reactive	Neither the control non-specific IgG1 ADCs nor the unconjugated 9P3 were efficacious	no binding (tested: 3.125-50 nM of cKIT ECD injected)	no binding (tested: 3.125-50 nM of cKIT ECD injected)	–
B2	–	–	–	–	–	–	no binding (tested: 3.125-50 nM of cKIT ECD injected)	no binding (tested: 3.125-50 nM of cKIT ECD injected)	binds
